Substitutions are numbered along the chain they refer to. Blank lines part the entries; values can stand above or below the binder they belong to.
How the values were obtained:
[1] = biological target: T1, CD47-His (human, UniProt Q08722 19-139, limits assumed); experiment: Fortebio BLI
T1 construct: not shown: His tag

[2] = biological target: T2, CD47 on the surface of tumor cells (human, UniProt Q08722 19-323); experiment: FACS on U937 cells
T2 construct: whole, on cells; Same protein as m4; also called CD47 antigen on the surface of U937 and CCRF cells; SKOV-3

[3] = biological target: T2, CD47 on the surface of tumor cells; experiment: FACS on CCRF cells
[4] = biological target: T3, recombinant antigen of the extracellular region of CD47 (Sino Biological, Cat: 12283-H08H) (human, UniProt Q08722 19-139); experiment: Fortebio BLI, recombinant CD47 extracellular region
T3 construct: extracellular domain; also called recombinant CD47 extracellular region; CD47 recombinant protein

[5] = biological target: T3, recombinant antigen of the …; experiment: Fortebio Octet QKe, antibody on AHC sensor, CD47 100 nM in solution
Description: The affinity of the antibody was determined by Octet QKe instrument of Fortebio Company. […] The kinetic parameters were determined.

[6] = biological target: T2, CD47 on the surface of tumor cells; experiment: FACS blocking assay on CCRF cells; blocked ligand FITC-labelled rhSIRPα-Fc
[7] = biological target: T2, CD47 on the surface of tumor cells; experiment: FACS blocking assay on U937 cells; blocked ligand FITC-labelled rhSIRPα-Fc
[8] = biological target: T4, human PD-L1 on cells (human, UniProt Q9NZQ7 19-290); experiment: flow cytometry on A431 cells
T4 construct: whole, on cells; also called MC38-hPD-L1/hCD47 cells; A431 cells

[9] = biological target: T5, CD47 on the surface of human red blood cells (human, UniProt Q08722 19-323); experiment: FACS, hRBC, 500 nM
T5 construct: whole, on cells; Same protein as m3, on red blood cells; also called hRBC; RBC
Description: (§1) The difference between the binding of the mutant to CD47 on the surface of tumor cells and CD47 on the surface of red blood cells was evaluated.

[10] = biological target: T2, CD47 on the surface of tumor cells; experiment: FACS, tumor cells, 1 nM
Description: as §1

[11] = biological target: T3, recombinant antigen of the …; experiment: Fortebio BLI, antibody on AHC sensor, CD47 extracellular region 100 nM;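 further: antibody held on the sensor through anti-human Fc capture, CD47 antigen in solution, association and dissociation phases each lasting 300 s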
Description: (§2) The affinity between the obtained mutant antibody and the CD47 recombinant protein was determined by Fortebio. The antibody was immobilized on the surface of a sensor with the anti-human Fc capture antibody (AHC Sensor), and reacted with the recombinant antigen of the extracellular region of CD47 (with a working concentration of 100 nM) in the liquid phase. The duration for binding and dissociation was both 300 seconds. The kinetic parameters were determined.

[12] = biological target: T3, recombinant antigen of the …; experiment: Fortebio BLI, antibody on AHC sensor, CD47 extracellular region 100 nM; Table 6 (heavy chain mutant series);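 on koff: antibody held on the sensor through anti-human Fc capture, CD47 antigen in solution, association and dissociation phases each lasting 300 s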;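 on kon: antibody held on the sensor through anti-human Fc capture, CD47 antigen in solution, association and dissociation phases each lasting 300 s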
Description: as §2

[13] = biological target: T2, CD47 on the surface of tumor cells; experiment: flow cytometry on A431 cells

T4 sequence (Q9NZQ7 19-290): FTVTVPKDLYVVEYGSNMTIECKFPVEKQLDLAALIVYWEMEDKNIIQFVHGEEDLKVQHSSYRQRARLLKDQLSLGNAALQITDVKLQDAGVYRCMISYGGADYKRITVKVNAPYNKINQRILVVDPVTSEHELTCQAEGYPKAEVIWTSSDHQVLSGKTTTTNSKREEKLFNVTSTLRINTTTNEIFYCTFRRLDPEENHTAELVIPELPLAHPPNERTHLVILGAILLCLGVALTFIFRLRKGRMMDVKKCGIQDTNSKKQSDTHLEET

B2: anti-PD-L1 monoclonal antibody (hz182) (antibody, human IgG4 S228P, kappa, V domains shown)
VH: QLVQSGAEVKKPGATVKISCKVSGFNIKDIYMHWVQQAPGKGLEWMGRIDPANANTKYDPKFQDRVTITADTSTNTAYMELSSLRSEDTAVYYCASGQLGPLGFDYWGQGTTVTVSS
VL: DIQMTQSPSSLSASVGDRVTITCRASQDISNYLNWYQQKPGKAPKLLLYYTSRLHSGVPSRFSGSGSGTDYTLTISSLQPEDFATYFCQQGAGRPYTFGGGTKVEIKR
notes: also called humanized anti-human PD-L1 antibody; anti-PD-L sidearm monoclonal antibody
EC50 (read off the curve) [8]: ~0.1 nM

B3: h140Hm13/h140L (antibody, V domains shown)
VH: EVQLVQSGAEVKKPGASVKVSCKASGYKFTNYVMSWVRQAPGQRLEWMGYINPYNDAIKYNEKFTGRVTITRDTSASTAYMELSSLRSEDTAVYYCAREGDFYANYGRLGFAYWGQGTLVTVSS
VL: DIQMTQSPSSLSASVGDRVTITCRASQDITNYLNWYQQKPGKAPKLLIYYTSRLHSGVPSRFSGSGSGTDYTFTISSLQPEDIATYFCQQGDTFPRTFGGGTKVEIK
notes: Heavy chain mutant 140Hm13 with the unmutated light chain of hz140
FACS (MFI) [9]: 27400 MFI
FACS (MFI) [10]: 102000 MFI

B7: h140Hm13/h140Lm4 (antibody, V domains shown)
VH: B3 VH
VL: B3 VL with I83F
FACS (MFI) [9]: 24200 MFI

B8: h140Hm13/h140Lm2 (antibody, V domains shown)
VH: B3 VH
VL: B3 VL with I48L
FACS (MFI) [9]: 26100 MFI

B9: h140Hm13/h140Lm1 (antibody, V domains shown)
VH: B3 VH
VL: B3 VL with T30S
notes: also called h140Lml
FACS (MFI) [9]: 28700 MFI

B10: h140Hm13/h140Lm3 (antibody, V domains shown)
VH: B3 VH
VL: B3 VL with F73L
FACS (MFI) [9]: 30600 MFI

B11: h140Hm13/h140Lm5 (antibody, V domains shown)
VH: B3 VH
VL: B3 VL with D92A
FACS (MFI) [9]: 27300 MFI

B13: 1F8 (antibody, human IgG4, V domains shown)
VH: KVQLVESGGGLVKPGGSLRLSCAASGFTFSNAWMNWVRQAPGKGLEWVGRIKRKTDGETTDYAAPVKGRFSISRDDSKNTLYLQMNSLKTEDTAVYYCAGSNRAFDIWGQGTMVTVSA
VL: DIVMTQSPDSLAVSLGERATINCKSSQSVLYSSNNRNYLAWYQQKPGQPPKLLINQASTRASGVPDRFSGSGSGTEFTLIISSLHAEDVAIYYCQQYYTPPLAFGGGTKLEIK
notes: also called anti-CD47 antibody 1F8; control anti-CD47 monoclonal antibody 1F8
EC50 (read off the curve) [13]: 2 to 3 nM

Other lines, results leading:

Kd [1]: 1.5 nM
koff [1]: 0.00037 s⁻¹
kon [1]: 247000 M⁻¹ s⁻¹
EC50 (read off the curve) [2]: ~0.2 µg/mL
EC50 (read off the curve) [3]: ~0.06 µg/mL
Kd [4]: 0.688 nM
koff [4]: 0.00022 s⁻¹
kon [4]: 320000 M⁻¹ s⁻¹
Kd [5]: 1.89 nM
koff [5]: 0.000933 s⁻¹
kon [5]: 493000 M⁻¹ s⁻¹
IC50 (read off the curve) [6]: ~0.3 µg/mL
IC50 (read off the curve) [7]: ~0.3 µg/mL
B1: humanized 140 (hz140) (antibody, human IgG4 S228P, kappa, V domains shown)
VH: B3 VH with E1Q, S35H, A57G
VL: B2 VL with S30T, L48I, L73F, F83I, A92D, G93T, R94F, Y96R
notes: also called anti-CD47 monoclonal antibody; anti-CD47 sidearm monoclonal antibody

Kd [5]: 7.03 nM
koff [5]: 0.00108 s⁻¹
kon [5]: 154000 M⁻¹ s⁻¹
koff [11]: 0.000226 s⁻¹
kon [11]: 315000 M⁻¹ s⁻¹
Kd [12]: 0.719 nM
B4: hz140-H/hz182-L (antibody, V domains shown)
VH: B3 VH with E1Q, S35H, A57G
VL: B3 VL with T30S, I48L, F73L, I83F, D92A, T93G, F94R, R96Y
notes: Hybrid antibody: heavy chain of hz140 with the light chain of hz182

FACS (MFI) [9]: 16700 MFI
FACS (MFI) [10]: 40200 MFI
B5: h140Hm13/h140Lm7 (antibody, V domains shown)
VH: B3 VH
VL: B3 VL with F94R

FACS (MFI) [9]: 27200 MFI
B6: h140Hm13/h140Lm6 (antibody, V domains shown)
VH: B3 VH
VL: B3 VL with T93G

FACS (MFI) [9]: 17700 MFI
FACS (MFI) [10]: 34600 MFI
B12: h140Hm13/h140Lm9 (antibody, V domains shown)
VH: B3 VH
VL: B3 VL with D92A, T93G, F94R
notes: also called h140Lmut9; mut9
